The results in this text go back to paper doi:10.1101/2020.08.27.270991 (bioRxiv, 2020).

Data set [1] has as its target full-length Thermus thermophilus MgtE (Thermus thermophilus, UniProt Q5SMG8). As to the kind of experiment: ITC. (ITC needs no label: the signal is the heat of the interaction.)
The data set “cryo-EM structure” concerns the molecule itself. Nature of the data set: cryo-EM structure.
The data set “cross-linking” concerns the molecule itself. As to the kind of experiment: cross-linking.

Positions count from the first letter of the chain named. Names and notes keep the numbering of the source.

B1: Fab antibody fragment Fab705 (Fab, V domains shown)
VH: EVKLQESGVELVKPGASVKISCKASGYSFTGYNMNWVKQSHGKSLEWIGNISPYYGTSIYNQNFKGKATLTVDRSSSTAYMQLNSLTSEDSAVYYCARGESFSNYEGYYAMDYWGQGTSVIVSS
VL: DVLMTQTPLSLPVSLGDQASISCRSSQSLVHSDGNTYLHWYLQKPGQSPKLLIYKVSNRFSGVPDRFSGSGSGTDFTLKISRVEAEDLGVYFCSQSTHVPWTFGGGTKLEIK
Consider B1, for which, in data set [1], the Kd turned out to be 253 ± 71.1 nM.

B2: full-length Thermus thermophilus MgtE (natural protein, UniProt Q5SMG8 1-450, looked up)
chain: MEEKLAVSLQEALQEGDTRALREVLEEIHPQDLLALWDELKGEHRYVVLTLLPKAKAAEVLSHLSPEEQAEYLKTLPPWRLREILEELSLDDLADALQAVRKEDPAYFQRLKDLLDPRTRAEVEALARYEEDEAGGLMTPEYVAVREGMTVEEVLRFLRRAAPDAETIYYIYVVDEKGRLKGVLSLRDLIVADPRTRVAEIMNPKVVYVRTDTDQEEVARLMADYDFTVLPVVDEEGRLVGIVTVDDVLDVLEAEATEDIHKLGAVDVPDLVYSEAGPVALWLARVRWLVILILTGMVTSSILQGFESVLEAVTALAFYVPVLLGTGGNTGNQSATLIIRALATRDLDLRDWRRVFLKEMGVGLLLGLTLSFLLVGKVYWDGHPLLLPVVGVSLVLIVFFANLVGAMLPFLLRRLGVDPALVSNPLVATLSDVTGLLIYLSVARLLLEAV
As to B2, the “stoichiometry N” value in “cryo-EM structure” turned out to be 2.

B3: MgtE double cysteine mutant T336C/L421C (natural protein, Thermus thermophilus, UniProt Q5SMG8 1-450, looked up)
chain: B2 chain with T336C, L421C
In the case of B3, the binding result in “cross-linking” is recorded as “binds”.

By Kd is commonly meant the constant that tells how readily two partners part at equilibrium. Broadly, the stoichiometry N is a count of units in the complex or per binding partner.
